The values that follow come from US20210054054A1 (ROCKEFELLER UNIVERSITY, published 2021).

The target of assay [1] is T1, human CD4 receptor (human, UniProt P01730 26-396).
T1 construct: also called human CD4 protein
In words: competition ELISA on CD4, competitor HRP-labeled wild type ibalizumab, pH 7.4.

The target in assay [2] is T1, human CD4 receptor. As to the kind of experiment: competition ELISA on CD4, competitor HRP-labeled wild type ibalizumab; fold reduced binding vs wt at pH 5.0 over that at pH 7.4. A general note: An ELISA detects its analyte on a solid surface through an enzyme-linked reagent.

B1: ibalizumab LC S56H variant (antibody, human IgG1, kappa, V domains shown)
VH: QVQLQQSGPEVVKPGASVKMSCKASGYTFTSYVIHWVRQKPGQGLDWIGYINPYNDGTDYDEKFKGKATLTSDTSTSTAYMELSSLRSEDTAVYYCAREKDNYATGAWFAYWGQGTLVTVSS
VL: DIVMTQSPDSLAVSLGERVTMNCKSSQSLLYSTNQKNYLAWYQQKPGQSPKLLIYWASTREHGVPDRFSGSGSGTDFTLTISSVQAEDVAVYYCQQYYSYRTFGGGTKLEIKR
B1: the “fold vs wt affinity at pH 7.4” value with human CD4 receptor [1] was 1.3 fold. Also, the “pH 5.0/pH 7.4 differential” value with human CD4 receptor [2] amounted to 0.8.

B2: ibalizumab variant with a histidine mutation at residue Y94 in the light chain (antibody, human IgG1, kappa, V domains shown)
VH: QVQLQQSGPEVVKPGASVKMSCKASGYTFTSYVIHWVRQKPGQGLDWIGYINPYNDGTDYDEKFKGKATLTSDTSTSTAYMELSSLRSEDTAVYYCAREKDNYATGAWFAYWGQGTLVTVSS
VL: DIVMTQSPDSLAVSLGERVTMNCKSSQSLLYSTNQKNYLAWYQQKPGQSPKLLIYWASTRESGVPDRFSGSGSGTDFTLTISSVQAEDVAVYYCQQYYSHRTFGGGTKLEIKR
notes: also called Y94H; LC Y94
Take B2: the “fold reduced CD4 binding vs wt at pH 7.4” value with human CD4 receptor [1] was less than 3 fold.

B3: ibalizumab light chain triple Y92H/S93H/Y94H variant (antibody, human IgG1, kappa, V domains shown)
VH: QVQLQQSGPEVVKPGASVKMSCKASGYTFTSYVIHWVRQKPGQGLDWIGYINPYNDGTDYDEKFKGKATLTSDTSTSTAYMELSSLRSEDTAVYYCAREKDNYATGAWFAYWGQGTLVTVSS
VL: DIVMTQSPDSLAVSLGERVTMNCKSSQSLLYSTNQKNYLAWYQQKPGQSPKLLIYWASTRESGVPDRFSGSGSGTDFTLTISSVQAEDVAVYYCQQYHHHRTFGGGTKLEIKR
For the molecule B3, in the assay with human CD4 receptor [2], the “pH 5.0/pH 7.4 differential” value is 3.4.

B4: ibalizumab variant with a histidine mutation at residue Y92 in the light chain (antibody, human IgG1, kappa, V domains shown)
VH: QVQLQQSGPEVVKPGASVKMSCKASGYTFTSYVIHWVRQKPGQGLDWIGYINPYNDGTDYDEKFKGKATLTSDTSTSTAYMELSSLRSEDTAVYYCAREKDNYATGAWFAYWGQGTLVTVSS
VL: DIVMTQSPDSLAVSLGERVTMNCKSSQSLLYSTNQKNYLAWYQQKPGQSPKLLIYWASTRESGVPDRFSGSGSGTDFTLTISSVQAEDVAVYYCQQYHSYRTFGGGTKLEIKR
notes: also called Y92H
With B4, in the assay with human CD4 receptor [1], the “fold loss of affinity vs wt at pH 7.4” value is greater than 2.6 fold and the “fold reduced CD4 binding vs wt at pH 7.4” value is less than 3 fold.

B5: ibalizumab light chain S93/Y94 double histidine mutant (antibody, human IgG1, kappa, V domains shown)
VH: QVQLQQSGPEVVKPGASVKMSCKASGYTFTSYVIHWVRQKPGQGLDWIGYINPYNDGTDYDEKFKGKATLTSDTSTSTAYMELSSLRSEDTAVYYCAREKDNYATGAWFAYWGQGTLVTVSS
VL: DIVMTQSPDSLAVSLGERVTMNCKSSQSLLYSTNQKNYLAWYQQKPGQSPKLLIYWASTRESGVPDRFSGSGSGTDFTLTISSVQAEDVAVYYCQQYYHHRTFGGGTKLEIKR
notes: also called combination of S93 and Y94; S93/Y94 double mutant
B5: the “pH 5.0/pH 7.4 differential” value with human CD4 receptor [2] worked out at 3.

B6: ibalizumab variant with a histidine mutation at residue S93 in the light chain (antibody, human IgG1, kappa, V domains shown)
VH: QVQLQQSGPEVVKPGASVKMSCKASGYTFTSYVIHWVRQKPGQGLDWIGYINPYNDGTDYDEKFKGKATLTSDTSTSTAYMELSSLRSEDTAVYYCAREKDNYATGAWFAYWGQGTLVTVSS
VL: DIVMTQSPDSLAVSLGERVTMNCKSSQSLLYSTNQKNYLAWYQQKPGQSPKLLIYWASTRESGVPDRFSGSGSGTDFTLTISSVQAEDVAVYYCQQYYHYRTFGGGTKLEIKR
notes: also called S93H
For the molecule B6, the “fold reduced CD4 binding vs wt at pH 7.4” value in the assay with human CD4 receptor [1] was less than 3 fold.
